Biological target: MUC1 (human, UniProt P15941 24-1255, limits assumed)
Assay: immunofluorescence co-localisation on human carcinoma cell lines; MUC5AC siRNA knockdown

B1: humanized PAM4 (hPAM4) IgG (antibody, V domains shown)
VH: QVQLQQSGAEVKKPGASVKVSCEASGYTFPSYVLHWVKQAPGQGLEWIGYINPYNDGTQYNEKFKGKATLTRDTSINTAYMELSRLRSDDTAVYYCARGFGGSYGFAYWGQGTLVTVSS
VL: DIQLTQSPSSLSASVGDRVTMTCSASSSVSSSYLYWYQQKPGKAPKLWIYSTSNLASGVPARFSGSGSGTDFTLTISSLQPEDSASYFCHQWNRYPYTFGGGTRLEIKR
notes: humanized IgG1 kappa; used HRP-conjugated in some ELISAs and blots; also called clivatuzumab; HRP-hPAM4
  binding result: no binding

Source: patent US20150315289A1 (published 2015)
